Measurements from doi:10.1101/2025.01.13.632879.
Each block holds one substance with its values, some of them ahead of it.

Key:
Experiment in all cases: SEC
[1] = target: GerS ortholog from Paraclostridium bifermentans, His6-tagged (Paraclostridium bifermentans)
[2] = target: Clostridioides difficile GerS, His6-tagged (wild type) (Clostridioides difficile)
[3] = target: Clostridioides difficile GerS N74L, His6-tagged (Clostridioides difficile)
[4] = target: Clostridioides difficile GerS T72P, His6-tagged (Clostridioides difficile)
[5] = target: GerS ortholog from Paraclostridium sordellii, His6-tagged (Paraclostridium sordellii)
[6] = target: Clostridioides difficile GerS K71R, His6-tagged (Clostridioides difficile)

Substance: GerS ortholog from Paraclostridium bifermentans, His6-tagged (natural protein)
- stoichiometry N [1]: 2

Substance: Clostridioides difficile GerS, His6-tagged (wild type) (natural protein)
- stoichiometry N [2]: 2

Substance: Clostridioides difficile GerS N74L, His6-tagged (natural protein)
- stoichiometry N [3]: 2

Substance: Clostridioides difficile GerS T72P, His6-tagged (natural protein)
- stoichiometry N [4]: 2

- stoichiometry N [5]: 2
Substance: GerS ortholog from Paraclostridium sordellii, His6-tagged (natural protein)

Substance: Clostridioides difficile GerS K71R, His6-tagged (natural protein)
- stoichiometry N [6]: 2
